Results taken from patent US8158579B2, “Fusion protein of an exendin to modified transferrin” (BioRexis Pharmaceutical Corporation, priority 2006, dated 2012).

B1: pREX0659: exendin-4(1-30) fragment fused via (PEAPTD)2 linker to mTf (SEQ ID NO: 17) (protein)
chain: HGEGTFTSDLSKQMEEEAVRLFIEWLKNGGPEAPTDPEAPTDVPDKTVRWCAVSEHEATKCQSFRDHMKSVIPSDGPSVACVKKASYLDCIRAIAANEADAVTLDAGLVYDAYLAPNNLKPVVAEFYGSKEDPQTFYYAVAVVKKDSGFQMNQLRGKKSCHTGLGRSAGWNIPIGLLYCDLPEPRKPLEKAVANFFSGSCAPCADGTDFPQLCQLCPGCGCSTLNQYFGYSGAFKCLKDGAGDVAFVKHSTIFENLANKADRDQYELLCLDNTRKPVDEYKDCHLAQVPSHTVVARSMGGKEDLIWELLNQAQEHFGKDKSKEFQLFSSPHGKDLLFKDSAHGFLKVPPRMDAKMYLGYEYVTAIRNLREGTCPEAPTDECKPVKWCALSHHERLKCDEWSVNSVGKIECVSAETTEDCIAKIMNGEADAMSLDGGFVYIAGKCGLVPVLAENYNKADNCEDTPEAGYFAVAVVKKSASDLTWDNLKGKKSCHTAVGRTAGWNIPMGLLYNKINHCRFDEFFSEGCAPGSKKDSSLCKLCMGSGLNLCEPNNKEGYYGYTGAFRCLVEKGDVAFVKHQTVPQNTGGKNPDPWAKNLNEKDYELLCLDGTRKPVEEYANCHLARAPNHAVVTRKDKEACVHKILRQQQHLFGSNVADCSGNFCLFRSETKDLLFRDDTVCLAKLHDRNTYEKYLGEEYVKAVGNLRKCSTSSLLEACTFRRP
B2: pREX0658: exendin-4(1-31) fragment fused via (PEAPTD)2 linker to mTf (SEQ ID NO: 17) (protein)
chain: HGEGTFTSDLSKQMEEEAVRLFIEWLKNGGPPEAPTDPEAPTDVPDKTVRWCAVSEHEATKCQSFRDHMKSVIPSDGPSVACVKKASYLDCIRAIAANEADAVTLDAGLVYDAYLAPNNLKPVVAEFYGSKEDPQTFYYAVAVVKKDSGFQMNQLRGKKSCHTGLGRSAGWNIPIGLLYCDLPEPRKPLEKAVANFFSGSCAPCADGTDFPQLCQLCPGCGCSTLNQYFGYSGAFKCLKDGAGDVAFVKHSTIFENLANKADRDQYELLCLDNTRKPVDEYKDCHLAQVPSHTVVARSMGGKEDLIWELLNQAQEHFGKDKSKEFQLFSSPHGKDLLFKDSAHGFLKVPPRMDAKMYLGYEYVTAIRNLREGTCPEAPTDECKPVKWCALSHHERLKCDEWSVNSVGKIECVSAETTEDCIAKIMNGEADAMSLDGGFVYIAGKCGLVPVLAENYNKADNCEDTPEAGYFAVAVVKKSASDLTWDNLKGKKSCHTAVGRTAGWNIPMGLLYNKINHCRFDEFFSEGCAPGSKKDSSLCKLCMGSGLNLCEPNNKEGYYGYTGAFRCLVEKGDVAFVKHQTVPQNTGGKNPDPWAKNLNEKDYELLCLDGTRKPVEEYANCHLARAPNHAVVTRKDKEACVHKILRQQQHLFGSNVADCSGNFCLFRSETKDLLFRDDTVCLAKLHDRNTYEKYLGEEYVKAVGNLRKCSTSSLLEACTFRRP

Target: T1, rat GLP-1 receptor (Rattus norvegicus, UniProt P32301)
T1 construct: expressed in transfected cells; host or cells: CHO (CHO-GLP-1R)
T1 sequence (P32301 22-463): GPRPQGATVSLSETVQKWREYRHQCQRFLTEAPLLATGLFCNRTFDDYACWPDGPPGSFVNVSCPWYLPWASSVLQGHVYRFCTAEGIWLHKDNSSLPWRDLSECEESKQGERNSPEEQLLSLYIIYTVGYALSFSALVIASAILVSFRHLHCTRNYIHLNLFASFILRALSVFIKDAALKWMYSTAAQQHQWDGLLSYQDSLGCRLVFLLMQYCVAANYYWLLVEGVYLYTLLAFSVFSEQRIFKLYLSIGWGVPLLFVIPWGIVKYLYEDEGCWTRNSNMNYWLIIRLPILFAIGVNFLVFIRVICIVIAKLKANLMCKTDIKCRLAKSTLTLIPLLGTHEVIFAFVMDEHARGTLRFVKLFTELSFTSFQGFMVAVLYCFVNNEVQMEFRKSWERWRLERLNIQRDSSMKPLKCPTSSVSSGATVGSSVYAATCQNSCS
Assay: cAMP potency assay in CHO cells transfected with the rat GLP-1 receptor (CHO-GLP-1R)
Format: cell-based
Settings: cAMP accumulation in CHO-GLP-1R cells
Procedure: 96-well tissue culture plates were seeded with CHO-GLP-1R cells and cultured overnight. The following day, the cells were rinsed with Krebs-Ringer buffer (KRB) and incubated in KRB containing the phosphodiesterase inhibitor 3-isobutyl-1-methylxanthine (IBMX, 2 mM) to inhibit intracellular enzymes that process cAMP. Serial dilutions of test compounds and controls were prepared in KRB/IBMX and triplicate wells of cells were inoculated with samples and controls. After incubation, individual sample lysates were then assayed to measure the increase in intracellular cAMP levels using a competition-based fluorescent immunoassay (CatchPoint® cAMP Fluorescent Assay Kit, Molecular Devices Corp., Sunnyvale, Calif.).

Row | Molecule | EC50 [nM]
1 | B1 | 0.85
2 | B2 | 0.33
